± gives the uncertainty stated by the source.
Test: self-splicing fitness, log relative to wild type (ln ratio); higher = more splicing; Tetrahymena group I intron in knt gene, E. coli kanamycin selection, DiMSum; sequences stand for … in CUCUCU…GGAGGGAAAAGUUAUCAGGCAUGCACCUGGUAGCUAGUCUUUAAACCAAUAGAUUGCAUCGGUUUAAAAGGCAAGACCGUCAAAUUGCGGGAAAGGGGUCAACAGCCGUUCAGUACCAAGUCUCAGGGGAAACUUUGAGAUGGCCUUGCAAAGGGUAUGGUAAUAAGCUGACGGACAUGGUCCUAACCACGCAGCCAAGUCCUAAGUCAACAGAUCUUCUGUUGAUAUGGAUGCAGUUCACAGACUAAAUGUCGGUCGGGGAAGAUGUAUUCUUCUCAUAAGAUAUAGUCGGACCUCUCCUUAAUGGGAGCUAGCGGAUGAAGUGAUGCAACACUGGAGCCGCUGGGAACUAAUUUGUAUGCGAAAGUAUAUUGAUUAGUUUUGGAGUACUCGUGGUCG
Procedure, shortened: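 Colonies from six replicate transformations of E. coli BL21(DE3) were pooled and amplicon-sequenced on an Illumina HiSeq 2500. The library placed an intron with all eight P1ex-region nucleotides randomised inside the knt kanamycin-resistance gene on pET-22b(+), and cells grew overnight at 37°C or 30°C on LB agar with or without 25 μg/mL kanamycin (plus 100 μg/mL carbenicillin, 50 μM IPTG, 0.2% rhamnose). Fitness is the DiMSum error-weighted combination of wild-type-normalised replicate fold changes, kanamycin versus none.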

Sequence	self-splicing fitness (ln) (30 °C)	self-splicing fitness (ln) (37 °C)
CCAGAGCAAUAUUACGGAAA	-3.62 ± 0.32	-2.19 ± 0.27
CCAGAGCAAUAUUACGGAGU	-3.32 ± 0.21	-3.21 ± 0.28
CCAGAGCAAUAUUACGGGUU	-3.1 ± 0.23	-2.63 ± 0.26
CCAGAGCAAUAUUACGUCUC	-3.23 ± 0.15	-2.78 ± 0.23
CCAGAGCAAUAUUACGUUCC	-4.16 ± 0.31	-2.6 ± 0.44
CCAGAGCAAUAUUACGUUUG	-2.32 ± 0.11	-2.25 ± 0.17
CCAUAGCAAUAUUACGAACA	-3.77 ± 0.22	-2.41 ± 0.25
CCAUAGCAAUAUUACGACAG	-1.16 ± 0.092	-0.413 ± 0.1
CCAUAGCAAUAUUACGAGUU	-3.76 ± 0.36	-2.1 ± 0.31
CCAUAGCAAUAUUACGAUUG	-1.17 ± 0.07	-0.642 ± 0.083
CCAUAGCAAUAUUACGCAAC	-2.54 ± 0.28	–
CCAUAGCAAUAUUACGCAGG	-3.98 ± 0.28	-3.18 ± 0.35
CCAUAGCAAUAUUACGCCCA	-1.9 ± 0.34	-1.86 ± 0.35
CCAUAGCAAUAUUACGCCGG	-2.5 ± 0.21	-3.15 ± 0.47
CCAUAGCAAUAUUACGCGCA	-2.65 ± 0.27	-2 ± 0.34
CCAUAGCAAUAUUACGCGGA	-2.87 ± 0.16	-2.26 ± 0.17
CCAUAGCAAUAUUACGCUGA	-3.52 ± 0.41	-1.99 ± 0.28
CCAUAGCAAUAUUACGCUUA	-2.56 ± 0.26	-3.5 ± 0.33
CCAUAGCAAUAUUACGCUUG	-2.3 ± 0.093	-1.35 ± 0.091
CCAUAGCAAUAUUACGGUCA	-3 ± 0.16	-1.44 ± 0.2
CCAUAGCAAUAUUACGGUCC	-2.72 ± 0.26	-1.99 ± 0.42
CCAUAGCAAUAUUACGUCUA	-4.41 ± 0.34	-2.47 ± 0.18
CCAUAGCAAUAUUACGUGCU	-3.88 ± 0.17	-2.1 ± 0.15
CCAUAGCAAUAUUACGUUCU	-3.64 ± 0.25	-3.4 ± 0.32

Sequence	self-splicing fitness (ln) (30 °C)	self-splicing fitness (ln) (37 °C)
CCCAAGCAAUAUUACGAAGC	-3.21 ± 0.2	-2.7 ± 0.24
CCCAAGCAAUAUUACGAAUA	-3.15 ± 0.27	-2.68 ± 0.25
CCCAAGCAAUAUUACGACGU	-2.11 ± 0.13	-2.43 ± 0.2
CCCAAGCAAUAUUACGACUU	-4.21 ± 0.2	-2.9 ± 0.17
CCCAAGCAAUAUUACGAUUU	-2.62 ± 0.13	-2.21 ± 0.17
CCCAAGCAAUAUUACGCAGC	-3.93 ± 0.29	-3.49 ± 0.34
CCCAAGCAAUAUUACGCCAC	-2.48 ± 0.25	-1.49 ± 0.22
CCCAAGCAAUAUUACGGACG	-2.8 ± 0.13	-2.17 ± 0.11
CCCAAGCAAUAUUACGGAGC	-3.64 ± 0.18	-2.21 ± 0.17
CCCAAGCAAUAUUACGGAUA	-2.84 ± 0.22	-2.17 ± 0.21
CCCAAGCAAUAUUACGGAUC	-4.28 ± 0.23	-2.45 ± 0.15
CCCAAGCAAUAUUACGGAUU	-2.56 ± 0.12	-2.71 ± 0.16
CCCAAGCAAUAUUACGGCGA	-3.88 ± 0.2	-1.69 ± 0.17
CCCAAGCAAUAUUACGGGGG	-3.6 ± 0.13	-3 ± 0.19
CCCAAGCAAUAUUACGGUUU	-3.72 ± 0.12	-2.92 ± 0.11
CCCAAGCAAUAUUACGUAUU	-3.8 ± 0.16	-2.7 ± 0.17
CCCAAGCAAUAUUACGUCGU	-4.05 ± 0.2	-2.31 ± 0.15
CCCAAGCAAUAUUACGUGAG	-2.48 ± 0.09	-0.85 ± 0.08
CCCAAGCAAUAUUACGUGGU	-3.27 ± 0.087	-1.86 ± 0.084
CCCAAGCAAUAUUACGUUGC	-3.18 ± 0.25	-2.16 ± 0.21
CCCCAGCAAUAUUACGACCG	-4.12 ± 0.26	-1.76 ± 0.34
CCCCAGCAAUAUUACGACGC	-3.17 ± 0.25	-3.22 ± 0.35
CCCCAGCAAUAUUACGACUU	-3.29 ± 0.13	-3 ± 0.22

— the supplement of paper PMC7877785
